In patent publication US20130004519A1 (published 2013):

Assays:
[1] = molecular target: T1, horse fibronectin coupled to CNBr-activated Sepharose 4B (horse, UniProt Q28377 32-2477, limits assumed); test: pull-down from HEK293 conditioned medium on horse fibronectin-Sepharose 4B, nanoLC-MSMS
T1 construct: Second control column of the pull-down; also called fibronectin column; FN-column

[2] = molecular target: T2, His-tagged human tenascin-C (human, UniProt P24821 23-2201); test: SPR (Biacore 2000), tenascin-C-his on CM5 chip, SMOC1 as analyte 3-300 nM, Langmuir 1:1 model, apparent KD
T2 construct: mature; The same construct was coupled to Sepharose 4B, coupled to the CM5 chip and expressed in COS cells for co-immunoprecipitation; also called TNC; hTNC; not shown: His tag
Protocol: Surface Plasmon Resonance Spectroscopy. Surface plasmon resonance spectroscopy was performed using a Biacore 2000 (BIAcore AB) system. Purified human tenascin-his protein was coupled in 25 mM sodium acetate pH 5 with a flow rate of 5 μl/min to a CM5 chip beforehand activated with N-hydroxysuccinimide and 1-ethyl-3-(3-dimethylaminopropyl)carbodiimide hydrochloride. Unbound reactive groups were then saturated with 1 M ethanolamine hydrochloride, pH 8.5. Experiments were carried out using increasing concentrations (3, 10, 30, 100 and 300 nM) of SMOC1 diluted in running buffer (pH 7.4, 20 mM Hepes, 150 mM NaCl, 2 mM CaCl2, 0.005% P20). The analyte was passed over the sensor chip with a constant flow rate of 25 μl/min for 240 s, and dissociation was measured over 500 s. Fittings of the data, overlay plots, and calculation of KD values were done with BIAevaluation software 4.1.
Interaction between tenascin-C and SMOC1 by Surface Plasmon Resonance Spectroscopy. In order to firmly establish binding between SMOC1 and tenascin-C, the present inventors performed Surface Plasmon Resonance Spectroscopy. Purified his-tagged tenascin-C was coupled to a CM5 chip and SMOC1 were tested as soluble analyte at increasing concentrations. Associations and dissociations of the obtained binding curves were analyzed in a Langmuir 1:1 binding model. […]

[3] = molecular target: T2, His-tagged human tenascin-C; test: pull-down on tenascin-C-Sepharose 4B, multiple reaction monitoring

T1 sequence (Q28377 32-2477 limits assumed): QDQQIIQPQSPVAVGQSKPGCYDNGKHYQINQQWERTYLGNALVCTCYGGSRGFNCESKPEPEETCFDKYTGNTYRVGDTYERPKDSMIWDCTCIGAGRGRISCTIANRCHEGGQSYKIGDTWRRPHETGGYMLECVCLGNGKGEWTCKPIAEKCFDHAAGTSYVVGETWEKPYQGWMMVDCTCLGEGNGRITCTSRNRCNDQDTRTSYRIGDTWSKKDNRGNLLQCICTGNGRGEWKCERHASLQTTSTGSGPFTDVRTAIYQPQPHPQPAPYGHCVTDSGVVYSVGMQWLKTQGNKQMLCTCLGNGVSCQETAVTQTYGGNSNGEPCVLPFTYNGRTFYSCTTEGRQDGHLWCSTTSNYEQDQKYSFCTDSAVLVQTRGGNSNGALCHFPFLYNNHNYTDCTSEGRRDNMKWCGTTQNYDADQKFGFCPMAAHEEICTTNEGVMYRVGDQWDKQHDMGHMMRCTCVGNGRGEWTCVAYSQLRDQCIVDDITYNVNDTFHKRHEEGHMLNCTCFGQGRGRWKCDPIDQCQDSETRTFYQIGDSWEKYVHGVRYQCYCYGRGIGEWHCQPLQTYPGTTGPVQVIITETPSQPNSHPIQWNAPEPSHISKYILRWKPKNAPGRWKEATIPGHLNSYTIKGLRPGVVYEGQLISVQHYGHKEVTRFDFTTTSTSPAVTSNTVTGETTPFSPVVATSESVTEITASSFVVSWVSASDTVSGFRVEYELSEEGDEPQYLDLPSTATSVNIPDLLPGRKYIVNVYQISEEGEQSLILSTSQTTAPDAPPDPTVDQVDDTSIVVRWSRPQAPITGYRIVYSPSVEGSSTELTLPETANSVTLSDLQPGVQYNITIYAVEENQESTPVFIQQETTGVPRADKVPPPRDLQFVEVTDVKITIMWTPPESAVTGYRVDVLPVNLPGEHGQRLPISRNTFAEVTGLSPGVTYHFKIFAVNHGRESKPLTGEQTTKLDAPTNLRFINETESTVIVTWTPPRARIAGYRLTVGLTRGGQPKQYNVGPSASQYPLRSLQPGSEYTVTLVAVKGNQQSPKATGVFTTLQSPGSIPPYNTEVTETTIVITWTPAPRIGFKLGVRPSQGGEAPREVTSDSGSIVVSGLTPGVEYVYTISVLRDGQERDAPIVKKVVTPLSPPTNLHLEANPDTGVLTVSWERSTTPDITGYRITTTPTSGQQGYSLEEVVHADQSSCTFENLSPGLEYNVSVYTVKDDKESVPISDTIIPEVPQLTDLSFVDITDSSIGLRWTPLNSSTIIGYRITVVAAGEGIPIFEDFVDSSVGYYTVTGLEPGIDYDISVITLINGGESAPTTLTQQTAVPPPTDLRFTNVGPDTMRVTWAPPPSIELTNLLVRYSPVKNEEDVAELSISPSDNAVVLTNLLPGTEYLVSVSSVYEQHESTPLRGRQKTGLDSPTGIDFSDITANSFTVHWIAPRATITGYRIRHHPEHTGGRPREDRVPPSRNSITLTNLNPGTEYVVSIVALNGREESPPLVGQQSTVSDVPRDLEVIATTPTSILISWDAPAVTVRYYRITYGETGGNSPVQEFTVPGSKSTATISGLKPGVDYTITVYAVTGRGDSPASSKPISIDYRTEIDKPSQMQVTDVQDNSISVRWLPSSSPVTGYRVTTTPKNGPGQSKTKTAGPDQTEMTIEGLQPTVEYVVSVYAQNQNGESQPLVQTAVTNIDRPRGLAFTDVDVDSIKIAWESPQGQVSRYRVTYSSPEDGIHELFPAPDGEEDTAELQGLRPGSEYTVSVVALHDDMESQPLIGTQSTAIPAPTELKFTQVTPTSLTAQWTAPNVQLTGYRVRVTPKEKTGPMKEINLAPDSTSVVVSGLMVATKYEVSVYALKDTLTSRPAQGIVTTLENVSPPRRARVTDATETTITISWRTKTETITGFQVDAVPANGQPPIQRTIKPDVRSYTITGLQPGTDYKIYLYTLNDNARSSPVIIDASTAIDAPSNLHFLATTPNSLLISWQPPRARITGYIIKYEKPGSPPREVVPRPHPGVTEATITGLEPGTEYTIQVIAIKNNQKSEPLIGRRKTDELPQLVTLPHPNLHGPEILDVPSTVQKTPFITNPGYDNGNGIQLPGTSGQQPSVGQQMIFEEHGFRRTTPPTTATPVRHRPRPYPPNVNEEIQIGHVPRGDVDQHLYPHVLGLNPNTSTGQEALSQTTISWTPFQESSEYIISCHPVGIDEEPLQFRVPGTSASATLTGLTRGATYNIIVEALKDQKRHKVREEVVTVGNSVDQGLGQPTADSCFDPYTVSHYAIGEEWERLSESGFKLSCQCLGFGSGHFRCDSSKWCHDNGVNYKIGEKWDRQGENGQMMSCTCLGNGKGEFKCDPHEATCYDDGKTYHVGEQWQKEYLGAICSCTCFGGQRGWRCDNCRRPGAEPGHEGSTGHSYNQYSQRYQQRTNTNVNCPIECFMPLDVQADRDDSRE
T2 sequence (P24821 23-2201): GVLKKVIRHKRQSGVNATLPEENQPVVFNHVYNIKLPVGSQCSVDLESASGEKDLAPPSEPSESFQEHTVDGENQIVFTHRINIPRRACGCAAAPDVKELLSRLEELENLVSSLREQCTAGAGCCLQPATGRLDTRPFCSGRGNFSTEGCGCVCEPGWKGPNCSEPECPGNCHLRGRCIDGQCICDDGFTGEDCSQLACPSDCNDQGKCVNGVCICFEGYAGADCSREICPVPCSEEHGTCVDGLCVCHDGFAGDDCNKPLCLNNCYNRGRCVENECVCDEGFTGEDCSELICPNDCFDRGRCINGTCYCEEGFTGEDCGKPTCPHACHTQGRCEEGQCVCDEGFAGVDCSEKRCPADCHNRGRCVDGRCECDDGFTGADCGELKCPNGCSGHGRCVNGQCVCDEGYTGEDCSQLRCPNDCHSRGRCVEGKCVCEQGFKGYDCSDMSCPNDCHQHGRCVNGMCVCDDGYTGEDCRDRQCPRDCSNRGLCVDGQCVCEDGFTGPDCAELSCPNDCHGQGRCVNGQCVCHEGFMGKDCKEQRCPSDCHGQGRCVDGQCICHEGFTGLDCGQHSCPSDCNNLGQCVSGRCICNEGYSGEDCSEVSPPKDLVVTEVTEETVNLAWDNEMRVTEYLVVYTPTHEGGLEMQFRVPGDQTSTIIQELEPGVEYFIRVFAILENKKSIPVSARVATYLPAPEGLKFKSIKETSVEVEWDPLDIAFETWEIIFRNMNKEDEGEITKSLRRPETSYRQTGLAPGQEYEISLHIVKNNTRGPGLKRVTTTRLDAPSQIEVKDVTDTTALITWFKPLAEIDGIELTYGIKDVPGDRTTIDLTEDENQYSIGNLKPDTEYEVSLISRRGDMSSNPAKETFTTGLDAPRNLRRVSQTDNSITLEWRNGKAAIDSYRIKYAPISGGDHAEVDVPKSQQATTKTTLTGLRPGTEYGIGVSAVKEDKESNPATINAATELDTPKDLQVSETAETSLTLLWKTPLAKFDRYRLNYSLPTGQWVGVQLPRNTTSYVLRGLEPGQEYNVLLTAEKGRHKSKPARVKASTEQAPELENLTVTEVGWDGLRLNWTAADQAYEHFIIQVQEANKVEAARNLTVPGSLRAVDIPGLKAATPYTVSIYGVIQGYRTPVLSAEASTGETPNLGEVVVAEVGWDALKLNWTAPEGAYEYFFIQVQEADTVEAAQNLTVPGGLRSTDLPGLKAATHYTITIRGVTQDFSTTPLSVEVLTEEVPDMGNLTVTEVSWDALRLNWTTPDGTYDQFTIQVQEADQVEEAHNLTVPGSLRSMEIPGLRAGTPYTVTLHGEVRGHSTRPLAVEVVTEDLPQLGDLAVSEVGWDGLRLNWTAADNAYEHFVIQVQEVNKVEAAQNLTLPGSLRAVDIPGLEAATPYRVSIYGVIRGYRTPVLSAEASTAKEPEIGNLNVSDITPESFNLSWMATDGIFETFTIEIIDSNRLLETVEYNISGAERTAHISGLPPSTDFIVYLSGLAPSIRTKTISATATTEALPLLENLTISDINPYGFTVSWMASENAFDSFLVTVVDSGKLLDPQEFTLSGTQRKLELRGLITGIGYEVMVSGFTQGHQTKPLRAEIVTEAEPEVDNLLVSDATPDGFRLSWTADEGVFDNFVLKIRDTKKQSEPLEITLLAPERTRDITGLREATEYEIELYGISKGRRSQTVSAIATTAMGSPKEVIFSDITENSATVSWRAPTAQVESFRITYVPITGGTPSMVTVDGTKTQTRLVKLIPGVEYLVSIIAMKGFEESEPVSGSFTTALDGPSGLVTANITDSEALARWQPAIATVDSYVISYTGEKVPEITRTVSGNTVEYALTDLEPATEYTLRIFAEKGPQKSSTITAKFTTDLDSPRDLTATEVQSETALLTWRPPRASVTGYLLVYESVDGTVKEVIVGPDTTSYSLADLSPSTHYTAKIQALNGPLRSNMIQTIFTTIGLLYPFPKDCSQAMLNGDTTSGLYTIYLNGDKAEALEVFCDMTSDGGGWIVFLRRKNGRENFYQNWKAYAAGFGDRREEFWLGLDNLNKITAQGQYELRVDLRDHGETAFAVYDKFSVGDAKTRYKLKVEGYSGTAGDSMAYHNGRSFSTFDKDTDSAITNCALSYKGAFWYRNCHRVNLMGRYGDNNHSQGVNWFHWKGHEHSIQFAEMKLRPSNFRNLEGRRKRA

Binder | MASCOT Score (fibronectin) [1] | spectrum count (fibronectin) [1] | Kd [2] [nM] | normalized enrichment (MRM), tenascin-C against control [3] [fold]
Nidogen-2 (other, human, UniProt Q14112 31-1375, looked up, also called NID2) LHPDELFPHGESWGDQLLQEGDDESSAVVKLANPLHFYEARFSNLYVGTNGIISTQDFPRETQYVDYDFPTDFPAIAPFLADIDTSHGRGRVLYREDTSPAVLGLAARYVRAGFPRSARFTPTHAFLATWEQVGAYEEVKRGALPSGELNTFQAVLASDGSDSYALFLYPANGLQFLGTRPKESYNVQLQLPARVGFCRGEADDLKSEGPYFSLTSTEQSVKNLYQLSNLGIPGVWAFHIGSTSPLDNVRPAAVGDLSAAHSSVPLGRSFSHATALESDYNEDNLDYYDVNEEEAEYLPGEPEEALNGHSSIDVSFQSKVDTKPLEESSTLDPHTKEGTSLGEVGGPDLKGQVEPWDERETRSPAPPEVDRDSLAPSWETPPPYPENGSIQPYPDGGPVPSEMDVPPAHPEEEIVLRSYPASGHTTPLSRGTYEVGLEDNIGSNTEVFTYNAANKETCEHNHRQCSRHAFCTDYATGFCCHCQSKFYGNGKHCLPEGAPHRVNGKVSGHLHVGHTPVHFTDVDLHAYIVGNDGRAYTAISHIPQPAAQALLPLTPIGGLFGWLFALEKPGSENGFSLAGAAFTHDMEVTFYPGEETVRITQTAEGLDPENYLSIKTNIQGQVPYVSANFTAHISPYKELYHYSDSTVTSTSSRDYSLTFGAINQTWSYRIHQNITYQVCRHAPRHPSFPTTQQLNVDRVFALYNDEERVLRFAVTNQIGPVKEDSDPTPGNPCYDGSHMCDTTARCHPGTGVDYTCECASGYQGDGRNCVDENECATGFHRCGPNSVCINLPGSYRCECRSGYEFADDRHTCILITPPANPCEDGSHTCAPAGQARCVHHGGSTFSCACLPGYAGDGHQCTDVDECSENRCHPAATCYNTPGSFSCRCQPGYYGDGFQCIPDSTSSLTPCEQQQRHAQAQYAYPGARFHIPQCDEQGNFLPLQCHGSTGFCWCVDPDGHEVPGTQTPPGSTPPHCGPSPEPTQRPPTICERWRENLLEHYGGTPRDDQYVPQCDDLGHFIPLQCHGKSDFCWCVDKDGREVQGTRSQPGTTPACIPTVAPPMVRPTPRPDVTPPSVGTFLLYTQGQQIGYLPLNGTRLQKDAAKTLLSLHGSIIVGIDYDCRERMVYWTDVAGRTISRAGLELGAEPETIVNSGLISPEGLAIDHIRRTMYWTDSVLDKIESALLDGSERKVLFYTDLVNPRAIAVDPIRGNLYWTDWNREAPKIETSSLDGENRRILINTDIGLPNGLTFDPFSKLLCWADAGTKKLECTLPDGTGRRVIQNNLKYPFSIVSYADHFYHTDWRRDGVVSVNKHSGQFTDEYLPEQRSHLYGITAVYPYCPTGRK | 0 | 0 | – | –
Phosphoglycerate kinase 1 (enzyme, human, UniProt P00558 2-417, looked up, also called PGK1) SLSNKLTLDKLDVKGKRVVMRVDFNVPMKNNQITNNQRIKAAVPSIKFCLDNGAKSVVLMSHLGRPDGVPMPDKYSLEPVAVELKSLLGKDVLFLKDCVGPEVEKACANPAAGSVILLENLRFHVEEEGKGKDASGNKVKAEPAKIEAFRASLSKLGDVYVNDAFGTAHRAHSSMVGVNLPQKAGGFLMKKELNYFAKALESPERPFLAILGGAKVADKIQLINNMLDKVNEMIIGGGMAFTFLKVLNNMEIGTSLFDEEGAKIVKDLMSKAEKNGVKITLPVDFVTADKFDENAKTGQATVASGIPAGWMGLDCGPESSKKYAEAVTRAKQIVWNGPVGVFEWEAFARGTKALMDEVVKATSRGCITIIGGGDTATCCAKWNTEDKVSHVSTGGGASLELLEGKVLPGVDALSNI | 100 | 6 | – | –

Further lines, results first:

MASCOT Score (fibronectin) [1] | spectrum count (fibronectin) [1] | Kd [2] [nM] | normalized enrichment (MRM), tenascin-C against control [3] [fold] | Binder
– | – | 2.2 | – | human recombinant SMOC1 (soluble analyte in surface plasmon resonance) (other, UniProt Q9H4F8 27-434, looked up, mature; also called hSMOC1; not shown: C-terminal tag: either 6 histidines alone (SMOC1-his) or myc-DDK plus 6 histidines) HRTTGPRFLISDRDPQCNLHCSRTQPKPICASDGRSYESMCEYQRAKCRDPTLGVVHRGRCKDAGQSKCRLERAQALEQAKKPQEAVFVPECGEDGSFTQVQCHTYTGYCWCVTPDGKPISGSSVQNKTPVCSGSVTDKPLSQGNSGRKDDGSKPTPTMETQPVFDGDEITAPTLWIKHLVIKDSKLNNTNIRNSEKVYSCDQERQSALEEAQQNPREGIVIPECAPGGLYKPVQCHQSTGYCWCVLVDTGRPLPGTSTRYVMPSCESDARAKTTEADDPFKDRELPGCPEGKKMEFITSLLDALTTDMVQAINSAAPTGGGRFSEPDPSHTLEERVVHWYFSQLDSNSSNDINKREMKPFKRYVKKKAKPKKCARRFTDYCDLNKDKVISLPELKGCLGVSKEGRLV
0 | 0 | – | 4.5 | SPARC-related modular calcium-binding protein 1 (SMOC1) from HEK293 conditioned medium (other, human, UniProt Q9H4F8 27-434, looked up, Endogenous protein pulled down from medium) HRTTGPRFLISDRDPQCNLHCSRTQPKPICASDGRSYESMCEYQRAKCRDPTLGVVHRGRCKDAGQSKCRLERAQALEQAKKPQEAVFVPECGEDGSFTQVQCHTYTGYCWCVTPDGKPISGSSVQNKTPVCSGSVTDKPLSQGNSGRKDDGSKPTPTMETQPVFDGDEITAPTLWIKHLVIKDSKLNNTNIRNSEKVYSCDQERQSALEEAQQNPREGIVIPECAPGGLYKPVQCHQSTGYCWCVLVDTGRPLPGTSTRYVMPSCESDARAKTTEADDPFKDRELPGCPEGKKMEFITSLLDALTTDMVQAINSAAPTGGGRFSEPDPSHTLEERVVHWYFSQLDSNSSNDINKREMKPFKRYVKKKAKPKKCARRFTDYCDLNKDKVISLPELKGCLGVSKEGRLV
